B1: GB1#-T17A.1d (designed binder)
chain: GPLGSTTYKLILNGKTLTGYTAAIAADAATAEIVLKQFANDNGIDGEWTYDDATKTFTVTE
B2: GB1#-T17V.1d (designed binder)
chain: B1 chain with A22V
B3: GB1#-D36V.1d (designed binder)
chain: B1 chain with A22T, D41V
B4: GB1#-Cont.1d (designed binder)
chain: B1 chain with A22T

Positions count from the first letter of the chain named. Names may count otherwise. Some results are limits rather than exact numbers.

The first assay concerns the target aTNF-Fab (Fab fragment of anti-human TNFα monoclonal IgG, generic name Infliximab, product name Remicade). Put plainly: affinity constant KA for aTNF-Fab, summing up Table 2 (method not shown in the excerpt).
As for B1, the Ka was > 500000 M⁻¹.

As for B2, the Ka was > 500000 M⁻¹.

As for B3, the Ka was > 500000 M⁻¹.

A further assay has the same target. As to the kind of experiment: SPR Biacore 3000, aTNF-Fab amine-coupled on CM5, peptide flowed, 25 °C, pH 7.4, 1:1 fit. In general terms: In SPR one partner is held on a chip, and binding of the other changes the refractive index at the surface.
What is called koff is a measure of how fast the partners let go of each other. Lower therefore signals a long-lived complex. The kon is the rate constant with which the complex forms. B4: the Ka came to 2.45e+06 M⁻¹, the koff was 0.017 s⁻¹ and the kon turned out to be 41700 M⁻¹ s⁻¹.

Consider B1, for which the Ka was found to be 880000 M⁻¹, the off-rate constant (koff) was determined as 0.0285 s⁻¹ and the kon is 25000 M⁻¹ s⁻¹.

On to B2, for which the Ka is 570000 M⁻¹, the off-rate (koff) turned out to be 0.0335 s⁻¹ and the on-rate constant (kon) was 19100 M⁻¹ s⁻¹.

The molecule B3 registered a Ka of 510000 M⁻¹, a koff of 0.064 s⁻¹ and a kon of 32800 M⁻¹ s⁻¹.

For another assay the target is unchanged. As to the kind of experiment: affinity chromatography on aTNF-Fab-immobilized column, linear pH gradient 5.5 to 2.5, pH at elution peak top.
B4 yielded a Dissociation pH of 2.6 pH.

B1 displayed a Dissociation pH of 2.85 pH.

B2 returned a Dissociation pH of 3 pH.

B3 gave a Dissociation pH of 3.4 pH.

The values above are taken from patent US20170355733A1.
